Test results published in PMC3515676.

Tests used:
Assay in all cases: purified protein
Type in all cases: biochemical, Danio rerio
[1] = test system: C[C@H](CCC(=O)NCC(=O)O)[C@H]1CC[C@H]2[C@@H]3[C@H](O)C[C@@H]4C[C@H](O)CC[C@]4(C)[C@H]3CC[C@]12C; details: 14 μM PAP[35S], 50 mM Taps pH 8.5, 28 °C, pH 8.5
[2] = test system: C[C@H](CCC(=O)O)[C@H]1CC[C@H]2[C@@H]3CC[C@@H]4C[C@H](O)CC[C@]4(C)[C@H]3CC[C@]12C; details: 14 μM PAP[35S], 50 mM Taps pH 8.5, 28 °C, pH 8.5
[3] = test system: C[C@H](CCC(=O)O)[C@H]1CC[C@H]2[C@@H]3[C@H](O)C[C@@H]4C[C@H](O)CC[C@]4(C)[C@H]3CC[C@]12C; details: 14 μM PAP[35S], 50 mM Taps pH 8.5, 28 °C, pH 8.5
[4] = test system: C[C@H](CCCO)[C@H]1CC[C@H]2[C@@H]3[C@H](O)C[C@H]4C[C@H](O)CC[C@]4(C)[C@H]3C[C@H](O)[C@]12C; details: 14 μM PAP[35S], 50 mM Mes pH 6.0, 28 °C, pH 6.0

## Zebra danio SULT3 ST2 (ZF SULT3 ST2) (Danio rerio)
[1]
  Km: 19.89 ± 1.32 µM
  Vmax: 0.00097 µmol/min/mg
[2]
  Km: 6.00 ± 0.55 µM
  Vmax: 0.00051 µmol/min/mg
[3]
  Km: 21.75 ± 2.74 µM
  Vmax: 0.00075 µmol/min/mg
[4]
  Km: 22.36 ± 1.47 µM
  Vmax: 0.00254 µmol/min/mg
